The record followed here is patent US20160185837A1, “GIP AND GLP-1 RECEPTOR DUAL-AGONISTS FOR THE TREATMENT OF DIABETES” (Medimmune Limited, priority 2013, published 2016).

Positions count from the first letter of the chain named. Ends that are not written are not given here.

Test in all cases: cell-based or functional assay
Experiment [1] has as its target human glucagon receptor (human) (UniProt P47871).
Experiment [2] deals with mouse GLP-1 receptor (mouse) (UniProt O35659).
The target in experiment [3] is human GLP-1 receptor (human) (UniProt P43220).
Experiment [4] has as its target T1, human GIP receptor (human) (UniProt P48546).
T1 sequence (looked up): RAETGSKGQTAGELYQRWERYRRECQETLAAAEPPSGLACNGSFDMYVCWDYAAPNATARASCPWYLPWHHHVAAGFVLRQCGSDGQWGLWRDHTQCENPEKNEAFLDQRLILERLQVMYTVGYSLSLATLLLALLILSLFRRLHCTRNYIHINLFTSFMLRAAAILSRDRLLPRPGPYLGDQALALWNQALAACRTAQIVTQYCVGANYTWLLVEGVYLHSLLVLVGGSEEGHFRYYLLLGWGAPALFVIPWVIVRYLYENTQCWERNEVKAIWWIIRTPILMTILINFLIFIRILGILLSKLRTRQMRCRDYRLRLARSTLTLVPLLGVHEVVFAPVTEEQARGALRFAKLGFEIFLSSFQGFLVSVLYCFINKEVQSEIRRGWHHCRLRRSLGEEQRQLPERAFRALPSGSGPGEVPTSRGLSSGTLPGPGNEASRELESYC

The next experiment concerns the target T2, rat GIP receptor (rat) (UniProt P43219).
T2 sequence (looked up): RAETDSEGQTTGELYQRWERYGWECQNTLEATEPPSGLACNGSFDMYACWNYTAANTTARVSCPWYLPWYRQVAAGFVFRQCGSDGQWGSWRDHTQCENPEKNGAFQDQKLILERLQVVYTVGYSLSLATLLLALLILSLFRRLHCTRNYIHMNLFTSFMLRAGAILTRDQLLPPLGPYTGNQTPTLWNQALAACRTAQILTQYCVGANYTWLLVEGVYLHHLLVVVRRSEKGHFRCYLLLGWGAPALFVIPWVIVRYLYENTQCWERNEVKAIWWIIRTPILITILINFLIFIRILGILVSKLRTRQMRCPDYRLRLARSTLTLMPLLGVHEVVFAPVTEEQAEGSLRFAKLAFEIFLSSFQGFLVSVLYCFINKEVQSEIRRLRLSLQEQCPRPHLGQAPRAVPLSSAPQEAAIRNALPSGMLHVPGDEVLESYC

Experiment [5] addresses T3, mouse GIP receptor (mouse) (UniProt Q0P543).
T3 sequence (looked up): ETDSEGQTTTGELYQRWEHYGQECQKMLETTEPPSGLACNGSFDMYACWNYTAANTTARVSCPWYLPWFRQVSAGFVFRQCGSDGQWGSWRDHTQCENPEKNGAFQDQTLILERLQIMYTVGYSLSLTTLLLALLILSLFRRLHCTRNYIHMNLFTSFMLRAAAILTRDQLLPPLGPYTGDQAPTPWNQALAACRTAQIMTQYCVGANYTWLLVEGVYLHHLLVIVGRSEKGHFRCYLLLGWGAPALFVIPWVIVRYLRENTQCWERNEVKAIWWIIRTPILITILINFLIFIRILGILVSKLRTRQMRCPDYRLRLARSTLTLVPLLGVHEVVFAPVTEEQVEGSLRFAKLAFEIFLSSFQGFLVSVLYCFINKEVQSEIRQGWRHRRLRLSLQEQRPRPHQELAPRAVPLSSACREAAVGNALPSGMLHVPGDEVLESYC

In a further experiment the target is rat GLP-1 receptor (rat) (UniProt P32301).
Experiment [6] has as its target cynomolgus monkey glucagon receptor (cynomolgus monkey).
Experiment [7] deals with cynomolgus monkey GLP-1 receptor (cynomolgus monkey) (UniProt F8V479).
cynomolgus monkey GLP-1 receptor (cynomolgus monkey), sequence (F8V479 entry or part of it): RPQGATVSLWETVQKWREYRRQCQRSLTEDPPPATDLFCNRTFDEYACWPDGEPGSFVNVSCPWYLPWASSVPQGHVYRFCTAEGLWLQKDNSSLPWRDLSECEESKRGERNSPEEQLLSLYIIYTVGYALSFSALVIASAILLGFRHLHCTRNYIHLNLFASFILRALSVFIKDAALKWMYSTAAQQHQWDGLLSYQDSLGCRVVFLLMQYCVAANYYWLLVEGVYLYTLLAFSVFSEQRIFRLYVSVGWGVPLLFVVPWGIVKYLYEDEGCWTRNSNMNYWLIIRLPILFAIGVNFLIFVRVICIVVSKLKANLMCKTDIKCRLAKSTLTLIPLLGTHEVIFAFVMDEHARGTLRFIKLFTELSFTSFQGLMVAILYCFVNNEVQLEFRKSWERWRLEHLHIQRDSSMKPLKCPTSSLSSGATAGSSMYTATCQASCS

human glucagon receptor (human), sequence (P47871 26-477): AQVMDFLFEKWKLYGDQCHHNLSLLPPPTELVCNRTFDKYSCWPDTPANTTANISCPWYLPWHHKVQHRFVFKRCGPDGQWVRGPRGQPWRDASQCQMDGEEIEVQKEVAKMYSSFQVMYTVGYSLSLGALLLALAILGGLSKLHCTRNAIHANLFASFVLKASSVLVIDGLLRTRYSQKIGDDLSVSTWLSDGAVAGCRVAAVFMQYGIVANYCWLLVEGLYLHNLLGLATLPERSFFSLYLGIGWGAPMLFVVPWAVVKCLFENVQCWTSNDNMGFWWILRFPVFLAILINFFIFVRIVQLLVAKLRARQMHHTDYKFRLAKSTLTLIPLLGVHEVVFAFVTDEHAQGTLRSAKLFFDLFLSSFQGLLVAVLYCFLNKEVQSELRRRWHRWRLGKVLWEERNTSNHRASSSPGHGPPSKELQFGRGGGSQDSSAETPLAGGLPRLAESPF
human GLP-1 receptor (human), sequence (P43220 24-463): as the sequence (F8V479 entry or part of it) above, with N112S, S120F, G202S, V205L, F237L, R241W, V249I counted along it
mouse GLP-1 receptor (mouse), sequence (O35659 22-463): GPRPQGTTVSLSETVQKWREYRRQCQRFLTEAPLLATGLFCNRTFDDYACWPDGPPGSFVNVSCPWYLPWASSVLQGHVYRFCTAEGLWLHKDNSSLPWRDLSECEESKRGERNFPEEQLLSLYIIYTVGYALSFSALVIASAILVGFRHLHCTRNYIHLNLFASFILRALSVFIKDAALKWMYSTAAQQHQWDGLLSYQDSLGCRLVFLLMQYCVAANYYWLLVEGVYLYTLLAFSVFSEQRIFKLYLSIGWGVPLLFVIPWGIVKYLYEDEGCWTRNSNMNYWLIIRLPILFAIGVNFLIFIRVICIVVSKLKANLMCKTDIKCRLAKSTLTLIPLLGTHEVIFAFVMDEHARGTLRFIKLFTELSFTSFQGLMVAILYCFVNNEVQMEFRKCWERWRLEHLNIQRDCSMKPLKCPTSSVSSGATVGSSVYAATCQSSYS
rat GLP-1 receptor (rat), sequence (P32301 22-463): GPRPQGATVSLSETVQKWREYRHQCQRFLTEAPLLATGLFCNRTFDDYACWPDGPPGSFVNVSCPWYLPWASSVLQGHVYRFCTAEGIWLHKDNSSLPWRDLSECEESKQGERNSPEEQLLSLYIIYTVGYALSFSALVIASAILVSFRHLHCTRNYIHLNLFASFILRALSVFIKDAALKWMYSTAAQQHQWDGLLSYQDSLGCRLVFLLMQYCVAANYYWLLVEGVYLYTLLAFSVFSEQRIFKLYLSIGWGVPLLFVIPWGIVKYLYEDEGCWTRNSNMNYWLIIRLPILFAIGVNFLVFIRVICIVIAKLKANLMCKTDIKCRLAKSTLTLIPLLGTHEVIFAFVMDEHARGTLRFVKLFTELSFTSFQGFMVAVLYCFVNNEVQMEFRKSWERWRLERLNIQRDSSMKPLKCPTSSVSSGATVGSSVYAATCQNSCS

B1: IP339 (Fc fusion)
chain: YSEGTFTSDYSKLLEKEAQRLFIEWLLAGGGGGGGSGGGGSGGGGSGGGGSGGGGSGGGGSA
For the molecule B1, the cAMP EC50 was determined as 23 nM in [1]; 1.6 nM in [2]; 0.18 nM in experiment [3]; 0.0098 nM in experiment [4]; 0.012 nM with rat GIP receptor (rat); 0.091 nM in experiment [5]. In the experiment with rat GLP-1 receptor (rat), this molecule returned a cAMP EC50 of 0.05 nM.

B2: IP299 (Fc fusion)
chain: YSEGTFISDYSKLLEEEAVRDFVEWLKAGGGGGGGSGGGGSGGGGSGGGGSATHTCPPC
Consider B2, for which the cAMP EC50 in experiment [1] was 53 nM; in [2] it was > 3640 nM; in experiment [3], > 3640 nM; in experiment [4], 0.021 nM; in the experiment with rat GIP receptor (rat), 0.11 nM; in experiment [5] it was 210 nM. In addition, the cAMP EC50 in the experiment with rat GLP-1 receptor (rat) came out at 19 nM.

B3: IP301 (Fc fusion)
chain: YSEGTFTSDVSSYLEREAIDEFIAWLLKGGAAAGGSGSTASSGSGSATGGGGAATHTCPPC
On to B3, for which the cAMP EC50 was 12000 nM in experiment [1]; 1.9 nM in [2]; 0.31 nM in [3]; 0.12 nM in [4]; 4.7 nM with rat GIP receptor (rat); 22 nM in experiment [5]. The cAMP EC50 with rat GLP-1 receptor (rat) was 0.058 nM.

B4: IP315 (Fc fusion)
chain: B3 chain with T7I, V10Y, E17Q
B4: the cAMP EC50 is 280 nM in experiment [1]; > 5460 nM in experiment [2]; > 5460 nM in experiment [3]; 0.024 nM in [4]; 0.096 nM with rat GIP receptor (rat); 0.36 nM in experiment [5]. Further, the cAMP EC50 with rat GLP-1 receptor (rat) was determined as 13 nM.

B5: IP309 (Fc fusion)
chain: B3 chain with T7I, E17Q
Regarding B5, the cAMP EC50 in experiment [1] is 900 nM; in [2], 16 nM; in experiment [3], 7.7 nM; in experiment [4] it was 0.086 nM; with rat GIP receptor (rat), 1.3 nM; in [5], 15 nM. Further, the cAMP EC50 with rat GLP-1 receptor (rat) was 1.7 nM.

B6: IP312 (Fc fusion)
chain: B3 chain with T7I, L14M, E17Q
With B6, the cAMP EC50 in experiment [1] was > 5310 nM; in experiment [2], > 1060 nM; in [3], > 5310 nM; in experiment [4], 0.048 nM; in the experiment with rat GIP receptor (rat), 1.2 nM; in [5], 16 nM. Also, the cAMP EC50 with rat GLP-1 receptor (rat) amounted to 5.4 nM.

B7: IP306 (Fc fusion)
chain: B3 chain with V10Y, S12K, Y13L, E17Q
For B7, the cAMP EC50 was found to be 220 nM in experiment [1]; 0.25 nM in [2]; 0.1 nM in experiment [3]; 0.011 nM in experiment [4]; 0.026 nM with rat GIP receptor (rat); 0.25 nM in [5]. Moreover, the cAMP EC50 in the experiment with rat GLP-1 receptor (rat) was determined as 0.015 nM.

B8: IP310 (Fc fusion)
chain: B3 chain with L14M, E17Q, G30K
As for B8, the cAMP EC50 stood at 3700 nM in experiment [1]; 1.4 nM in experiment [2]; 0.35 nM in experiment [3]; 0.15 nM in experiment [4]; 5.2 nM with rat GIP receptor (rat); 31 nM in [5]. This molecule also yielded a cAMP EC50 with rat GLP-1 receptor (rat) of 0.038 nM.

B9: IP307 (Fc fusion)
chain: B3 chain with L14M, E17Q, G29Q
For B9, the cAMP EC50 is 4100 nM in experiment [1]; 6.5 nM in experiment [2]; 1.6 nM in [3]; 0.091 nM in [4]; 5.2 nM in the experiment with rat GIP receptor (rat); 31 nM in experiment [5]. The cAMP EC50 with rat GLP-1 receptor (rat) worked out at 0.21 nM.

B10: IP329 (Fc fusion)
chain: YSEGTFTSDYSKLLERQAIDEFIAELLKGGGGGGGSGGGGSGGGGSGGGGSGGGGSGGGGSA
On to B10, for which the cAMP EC50 in [1] was > 1430 nM; in experiment [2] it was 9 nM; in experiment [3] it was 1.4 nM; in experiment [4] it was 0.011 nM; in the experiment with rat GIP receptor (rat) it was 0.06 nM; in [5], 2.6 nM. In the experiment with rat GLP-1 receptor (rat), the cAMP EC50 was determined as 0.18 nM.

B11: GLP-1 analogue-Fc (gamma4) fusion control (Fc fusion, not shown: a dimerising Fc or GST)
chain: HGEGTFTSDVSSYLEEQAAKEFIAWLVKGR
modifications: also: fused to linker, hinge and IgG4 Fc (not given here)
For B11, the cAMP EC50, 4.2% cyno serum albumin in experiment [6] is > 1000 nM; in [7] it was 0.011 nM.

B12: IP359 (Fc fusion)
chain: YSEGTFTSDYSKLLEEEAVRLFIEHLLAGGGGGGSGGGGSGGGGSGGGGSATHTCPPC
B12: the cAMP EC50 in [1] was 43 nM; in [2] it was 0.2 nM; in experiment [3], 0.061 nM; in experiment [4], 0.011 nM; in the experiment with rat GIP receptor (rat), 0.039 nM; in experiment [5], 8.3 nM. In the experiment with rat GLP-1 receptor (rat), this molecule displayed a cAMP EC50 of 0.04 nM.

B13: IP412 (Fc fusion)
chain: B12 chain with V19N, H25W
Turning to B13, the cAMP EC50 in experiment [1] is > 440 nM; in experiment [2] it was 1.2 nM; in experiment [3], 0.073 nM; in the experiment with rat GIP receptor (rat), 0.018 nM; in experiment [5], 0.4 nM; with rat GLP-1 receptor (rat) it was 0.022 nM. Besides, the cAMP EC50, hGIPr (C3) line in experiment [4] turned out to be 1.3 nM.

B14: IP381 (Fc fusion)
chain: B12 chain with H25Y
On to B14, for which the cAMP EC50 came out at 18 nM in experiment [1]; 0.73 nM in [2]; 0.091 nM in [3]; 0.0099 nM in [4]; 0.045 nM in the experiment with rat GIP receptor (rat); 5.4 nM in [5]. The cAMP EC50 in the experiment with rat GLP-1 receptor (rat) came to 0.027 nM.

B15: IP380 (Fc fusion)
chain: B12 chain with H25F
On to B15, for which the cAMP EC50 was found to be 25 nM in experiment [1]; 1.2 nM in experiment [2]; 0.11 nM in experiment [3]; 0.0084 nM in experiment [4]; 0.06 nM with rat GIP receptor (rat); 6.6 nM in experiment [5]. For the same molecule, the cAMP EC50 with rat GLP-1 receptor (rat) was found to be 0.031 nM.

B16: IP289 (Fc fusion)
chain: YSEGTFTSDYSKLLEKEAERLFIEWLLKGPGGGGGSGGGGSGGGGSGGGGSATHTCPPC
In the case of B16, the cAMP EC50 in [1] was 240 nM; in experiment [2] it was 6.8 nM; in experiment [3], 3.4 nM; in experiment [4], 0.01 nM; in the experiment with rat GIP receptor (rat), 0.02 nM; in [5] it was 0.44 nM. The cAMP EC50 in the experiment with rat GLP-1 receptor (rat) turned out to be 0.23 nM.
